One block for each molecule: values may come before it.
Tests used:
[1] = molecular target: AnkG_repeats (24 ANK repeats of rat 190 kDa ankyrin-G, residues 38–855) (rat) (UniProt O70511); experiment: ITC; VP-ITC at 25°C; 50 mM Tris pH 7.5, 100 mM NaCl, 1 mM EDTA, 1 mM DTT; binding partner (AS, Nav1.2 ABD proteins, neurofascin ABD; 200–300 µM) in the syringe, ANK repeats (20–30 µM) in the cell; one-site binding model
[2] = molecular target: T1, AnkR_repeats (24 ANK repeats of ankyrin-R, residues 42–853) (mouse, UniProt Q02357-6 42-853); experiment: ITC
T1 chain: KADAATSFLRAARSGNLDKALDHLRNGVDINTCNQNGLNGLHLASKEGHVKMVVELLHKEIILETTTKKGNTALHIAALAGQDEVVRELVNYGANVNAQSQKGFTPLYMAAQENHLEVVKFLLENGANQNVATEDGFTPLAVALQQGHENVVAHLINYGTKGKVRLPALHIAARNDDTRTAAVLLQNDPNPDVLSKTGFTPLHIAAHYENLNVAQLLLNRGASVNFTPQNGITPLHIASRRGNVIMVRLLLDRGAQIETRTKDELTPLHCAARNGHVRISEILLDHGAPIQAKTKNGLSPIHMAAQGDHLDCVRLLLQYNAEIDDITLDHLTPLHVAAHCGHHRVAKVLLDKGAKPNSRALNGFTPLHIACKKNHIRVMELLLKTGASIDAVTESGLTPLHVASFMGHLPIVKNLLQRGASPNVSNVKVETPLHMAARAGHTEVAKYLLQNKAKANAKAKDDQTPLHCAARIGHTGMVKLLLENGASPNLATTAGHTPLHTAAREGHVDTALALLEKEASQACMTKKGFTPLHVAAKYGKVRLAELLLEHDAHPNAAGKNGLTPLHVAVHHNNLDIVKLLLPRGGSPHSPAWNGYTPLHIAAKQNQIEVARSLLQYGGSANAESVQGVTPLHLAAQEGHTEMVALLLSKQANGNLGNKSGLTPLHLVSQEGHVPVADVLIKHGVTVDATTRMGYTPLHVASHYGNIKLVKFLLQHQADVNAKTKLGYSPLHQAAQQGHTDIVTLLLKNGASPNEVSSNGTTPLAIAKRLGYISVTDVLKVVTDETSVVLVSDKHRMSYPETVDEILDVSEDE

[3] = molecular target: FITC-labeled AnkR_AS peptide (mouse); experiment: fluorescence polarisation; FITC-labeled peptide (~1 µM) titrated with AnkB_repeats WT or mutants; 25°C; 50 mM Tris pH 8.0, 100 mM NaCl, 1 mM DTT, 1 mM EDTA; one-site binding model
[4] = molecular target: T2, Nav1.2_ABD (ankyrin binding domain of Nav1.2, residues 1035–1129); experiment: ITC; details: chain shown with the change
T2 chain: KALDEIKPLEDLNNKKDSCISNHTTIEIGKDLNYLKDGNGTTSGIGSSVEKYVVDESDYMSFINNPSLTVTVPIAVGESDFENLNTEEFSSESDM

Kd [1]: 0.21 µM
Molecule: Nfasc_ABD (28-residue fragment of the neurofascin cytoplasmic tail, residues 1187–1214) (domain or fragment)

Kd [1]: 0.17 µM
Molecule: Nav1.2_ABD (ankyrin binding domain of Nav1.2, residues 1035–1129) (domain or fragment)

fold weaker affinity than the entire ABD [1]: 15 fold
Molecule: Nav1.2_ABD-C (27-residue motif of loop 2, residues 1103–1129) (domain or fragment)

fold weaker binding than wild-type Nav1.2 [1]: 30 fold
Molecule: E1112Q-Nav1.2 (ABD with E1112Q) (domain or fragment)

fold weaker binding than wild-type Nav1.2 [1]: 30 fold
Molecule: E1112A-Nav1.2 (ABD with E1112A) (domain or fragment)

Kd [2]: 2 µM
B1: AnkR 1577-1612 (peptide)
chain: CADQYWNEVTVIDAIPLAATEHDTMLEMSDMQVWSA

Kd [3]: 0.14 µM
B2: AnkB_repeats (24 ANK repeats of human 220 kDa ankyrin-B, residues 28–873) (domain or fragment)
chain: KSDSNASFLRAARAGNLDKVVEYLKGGIDINTCNQNGLNALHLAAKEGHVGLVQELLGRGSSVDSATKKGNTALHIASLAGQAEVVKVLVKEGANINAQSQNGFTPLYMAAQENHIDVVKYLLENGANQSTATEDGFTPLAVALQQGHNQAVAILLENDTKGKVRLPALHIAARKDDTKSAALLLQNDHNADVQSKMMVNRTTESGFTPLHIAAHYGNVNVATLLLNRGAAVDFTARNGITPLHVASKRGNTNMVKLLLDRGGQIDAKTRDGLTPLHCAARSGHDQVVELLLERGAPLLARTKNGLSPLHMAAQGDHVECVKHLLQHKAPVDDVTLDYLTALHVAAHCGHYRVTKLLLDKRANPNARALNGFTPLHIACKKNRIKVMELLVKYGASIQAITESGLTPIHVAAFMGHLNIVLLLLQNGASPDVTNIRGETALHMAARAGQVEVVRCLLRNGALVDARAREEQTPLHIASRLGKTEIVQLLLQHMAHPDAATTNGYTPLHISAREGQVDVASVLLEAGAAHSLATKKGFTPLHVAAKYGSLDVAKLLLQRRAAADSAGKNGLTPLHVAAHYDNQKVALLLLEKGASPHATAKNGYTPLHIAAKKNQMQIASTLLNYGAETNIVTKQGVTPLHLASQEGHTDMVTLLLDKGANIHMSTKSGLTSLHLAAQEDKVNVADILTKHGADQDAHTKLGYTPLIVACHYGNVKMVNFLLKQGANVNAKTKNGYTPLHQAAQQGHTHIINVLLQHGAKPNATTANGNTALAIAKRLGYISVVDTLKVVTEEVTTTTTTITEKHKLNVPETMTEVLDVSDEEGDDTMTGDGGEYLRPEDLKELGDD

fold decrease in AnkR AS binding against WT ANK repeats [3]: 20 fold
B3: AnkB_repeats site 2 mutant 'IL' (Ile267 and Leu300 to Gln) (domain or fragment)
chain: KSDSNASFLRAARAGNLDKVVEYLKGGIDINTCNQNGLNALHLAAKEGHVGLVQELLGRGSSVDSATKKGNTALHIASLAGQAEVVKVLVKEGANINAQSQNGFTPLYMAAQENHIDVVKYLLENGANQSTATEDGFTPLAVALQQGHNQAVAILLENDTKGKVRLPALHIAARKDDTKSAALLLQNDHNADVQSKMMVNRTTESGFTPLHIAAHYGNVNVATLLLNRGAAVDFTARNGQTPLHVASKRGNTNMVKLLLDRGGQIDAKTRDGQTPLHCAARSGHDQVVELLLERGAPLLARTKNGLSPLHMAAQGDHVECVKHLLQHKAPVDDVTLDYLTALHVAAHCGHYRVTKLLLDKRANPNARALNGFTPLHIACKKNRIKVMELLVKYGASIQAITESGLTPIHVAAFMGHLNIVLLLLQNGASPDVTNIRGETALHMAARAGQVEVVRCLLRNGALVDARAREEQTPLHIASRLGKTEIVQLLLQHMAHPDAATTNGYTPLHISAREGQVDVASVLLEAGAAHSLATKKGFTPLHVAAKYGSLDVAKLLLQRRAAADSAGKNGLTPLHVAAHYDNQKVALLLLEKGASPHATAKNGYTPLHIAAKKNQMQIASTLLNYGAETNIVTKQGVTPLHLASQEGHTDMVTLLLDKGANIHMSTKSGLTSLHLAAQEDKVNVADILTKHGADQDAHTKLGYTPLIVACHYGNVKMVNFLLKQGANVNAKTKNGYTPLHQAAQQGHTHIINVLLQHGAKPNATTANGNTALAIAKRLGYISVVDTLKVVTEEVTTTTTTITEKHKLNVPETMTEVLDVSDEEGDDTMTGDGGEYLRPEDLKELGDD

fold decrease in AnkR AS binding against WT ANK repeats [3]: 20 fold
B4: AnkB_repeats site 1 mutant 'FF' (Phe131 and Phe164 to Gln) (domain or fragment)
chain: KSDSNASFLRAARAGNLDKVVEYLKGGIDINTCNQNGLNALHLAAKEGHVGLVQELLGRGSSVDSATKKGNTALHIASLAGQAEVVKVLVKEGANINAQSQNGQTPLYMAAQENHIDVVKYLLENGANQSTATEDGQTPLAVALQQGHNQAVAILLENDTKGKVRLPALHIAARKDDTKSAALLLQNDHNADVQSKMMVNRTTESGFTPLHIAAHYGNVNVATLLLNRGAAVDFTARNGITPLHVASKRGNTNMVKLLLDRGGQIDAKTRDGLTPLHCAARSGHDQVVELLLERGAPLLARTKNGLSPLHMAAQGDHVECVKHLLQHKAPVDDVTLDYLTALHVAAHCGHYRVTKLLLDKRANPNARALNGFTPLHIACKKNRIKVMELLVKYGASIQAITESGLTPIHVAAFMGHLNIVLLLLQNGASPDVTNIRGETALHMAARAGQVEVVRCLLRNGALVDARAREEQTPLHIASRLGKTEIVQLLLQHMAHPDAATTNGYTPLHISAREGQVDVASVLLEAGAAHSLATKKGFTPLHVAAKYGSLDVAKLLLQRRAAADSAGKNGLTPLHVAAHYDNQKVALLLLEKGASPHATAKNGYTPLHIAAKKNQMQIASTLLNYGAETNIVTKQGVTPLHLASQEGHTDMVTLLLDKGANIHMSTKSGLTSLHLAAQEDKVNVADILTKHGADQDAHTKLGYTPLIVACHYGNVKMVNFLLKQGANVNAKTKNGYTPLHQAAQQGHTHIINVLLQHGAKPNATTANGNTALAIAKRLGYISVVDTLKVVTEEVTTTTTTITEKHKLNVPETMTEVLDVSDEEGDDTMTGDGGEYLRPEDLKELGDD

Kd [4]: 2.6 µM
B5: AnkG_repeats (24 ANK repeats of rat 190 kDa ankyrin-G, residues 38–855), O70511 T94A; N98E (protein)
chain: KSDANASYLRAARAGHLEKALDYIKNGVDVNICNQNGLNALHLASKEGHVEVVSELLQREANVDAAAKKGETALHIASLAGQAEVVKVLVTNGANVNAQSQNGFTPLYMAAQENHLEVVRFLLDNGASQSLATEDGFTPLAVALQQGHDQVVSLLLENDTKGKVRLPALHIAARKDDTKAAALLLQNDTNADIESKMVVNRATESGFTPLHIAAHYGNINVATLLLNRAAAVDFTARNDITPLHVASKRGNANMVKLLLDRGAKIDAKTRDGLTPLHCGARSGHEQVVEMLLDRAAPILSKTKNGLSPLHMATQGDHLNCVQLLLQHNVPVDDVTNDYLTALHVAAHCGHYKVAKVLLDKKANPNAKALNGFTPLHIACKKNRIRVMELLLKHGASIQAVTESGLTPIHVAAFMGHVNIVSQLMHHGASPNTTNVRGETALHMAARSGQAEVVRYLVQDGAQVEAKAKDDQTPLHISARLGKADIVQQLLQQGASPNAATTSGYTPLHLSAREGHEDVAAFLLDHGASLSITTKKGFTPLHVAAKYGKLEVASLLLQKSASPDAAGKSGLTPLHVAAHYDNQKVALLLLDQGASPHAAAKNGYTPLHIAAKKNQMDIATSLLEYGADANAVTRQGIASVHLAAQEGHVDMVSLLLSRNANVNLSNKSGLTPLHLAAQEDRVNVAEVLVNQGAHVDAQTKMGYTPLHVGCHYGNIKIVNFLLQHSAKVNAKTKNGYTPLHQAAQQGHTHIINVLLQNNASPNELTVNGNTALAIARRLGYISVVDTLKVVTEEIMTTTTITEKHKMNVPETMNEVLDMS

Kd [2]: > 50 µM
B6: AnkR 1601-1672 (protein)
chain: MLEMSDMQVWSAGLTPSLVTAEDSSLECSKAEDSDAIPEWKLEGAHSEDTQGPELGSQDLVEDDTVDSDATN

Kd [2]: 23 µM
B7: AnkR 1589-1612 (peptide)
chain: DAIPLAATEHDTMLEMSDMQVWSA

Kd [2]: 1.1 µM
B8: AnkR 1529-1672 (protein)
chain: RQSRNLKPERRHGDREYSLSPSQVNGYSSLQDELLSPASLQYALPSPLCADQYWNEVTVIDAIPLAATEHDTMLEMSDMQVWSAGLTPSLVTAEDSSLECSKAEDSDAIPEWKLEGAHSEDTQGPELGSQDLVEDDTVDSDATN

Kd [2]: 1 µM
B9: AnkR 1529-1825 (protein)
chain: RQSRNLKPERRHGDREYSLSPSQVNGYSSLQDELLSPASLQYALPSPLCADQYWNEVTVIDAIPLAATEHDTMLEMSDMQVWSAGLTPSLVTAEDSSLECSKAEDSDAIPEWKLEGAHSEDTQGPELGSQDLVEDDTVDSDATNGLADLLGQEEGQRSEKKRQEVSGTEQDTETEVSLVSGQQRVHARITDSPSVRQVLDRSQARTLDWDKQGSTAVHPQEATQSSWQEEVTQGPHSFQRRITTIQGPEPGALQEYEQVLVSTREHVQRGPPETGSPKAGKEPSLWAPESAFSQEVQ

Kd [2]: > 50 µM
B10: AnkR 1529-1600 (protein)
chain: RQSRNLKPERRHGDREYSLSPSQVNGYSSLQDELLSPASLQYALPSPLCADQYWNEVTVIDAIPLAATEHDT

Kd [2]: 2.2 µM
B11: AnkR 1589-1624 (peptide)
chain: DAIPLAATEHDTMLEMSDMQVWSAGLTPSLVTAEDS
